Patent publication US6191256A, “Recombinant factor VIII binding peptides” (Bayer Corporation, priority 1998, dated 2001)

Tests used:
rFVIII [1] = molecular target: T1, rFVIII (Homo sapiens, UniProt P00451); test: rFVIII activity recovery from peptide columns by chromogenic substrate assay (COATEST); assay type: biochemical; conditions: for 0.5M CaCl2 IU / 2% acetic acid % total / 2% acetic acid IU / Flow through % total / Total IU / 0.5M CaCl2 % total / Flow through IU: Table 8; for 0.5M CaCl2 % total: activity recovery; for Flow through IU: rFVIII activity in fraction; for Activity results % total: Table 9, 0.5M CaCl2 fraction
Experimental: (§1) Immunoassay on rFVIII using a sandwich capture ELISA for the light chain and activity assay using a chromogenic substrate (COATEST Factor VIII kit from diaPharma, Franklin, Ohio) were performed on a BIOMEK® automated liquid handling system from Beckman Instruments (Brea, Calif.). The monoclonal antibody for rFVIII light chain (known as C7F7), the ELISA assay standard (lot A70K019), and the control for the activity assay (lot A70A001 @ 140 IU/mL) were from the Bayer Corporation (Berkeley, Calif.). The standard for the activity assay was at 11.2 IU/mL (Bayer, Clayton, N.C.), calibrated against the MEGA 1 standard, which is a working standard used by American manufacturers for measuring factor VIII activity (21).
(§2) Additional confirmatory binding assay and performance of the discovered binding peptides in terms of total rFVIII and activity recovery was performed in a column chromatographic format on a microbore HPLC. The resins were packed into 0.4×5 cm columns (Thomson, Springfield, Va.) and tested on the MICHROM HPLC system (Michrom BioResources, Auburn, Calif.). The elution program for the trials utilized the following method. The column was pre-equilibrated with equilibration buffer (as above). A 1 mL aliquot of 1:10 PPF followed by 1 mL of rFVIII (10,000 ng) in 1:10 PPF were injected and allowed sufficient time to flow through the column using equilibration buffer. The column was then washed with step elutions of 0.5 M and 1.0 M CaCl2 in equilibration buffer. The column was exposed to equilibration buffer. Remaining protein was eluted with 2% by volume glacial acetic acid in water. Columns were kept at 5° C. during the chromatographic runs. For each 1 mL injection (equilibration buffer, 1:10 PPF and 10,000 ng rFVIII in 1:10 PPF), the chromatographic cycle was run for 45 minutes (injection, flow through, 0.5 M CaCl2, 1.0 M CaCl2, equilibration buffer, 2% acetic acid, equilibration buffer).
(§3) A Gilson FC204 fraction collector at the HPLC outlet collected individual eluates for further analysis. Each collection tube had 100 μL hSA added to it to stabilize the rFVIII. Fractions collected from the 2% acetic acid eluates were neutralized with 2 M Tris, pH 10.5 to bring the pH to neutrality. The fractions were analyzed for total protein by the integration of the absorbance at 280 nm, for rFVIII by immunoassay (sandwich capture ELISA), and for rFVIII activity by a chromogenic substrate assay.
Tables 7 and 8 list the sequences for which activity recovery was determined by a chromogenic substrate assay (COASTEST kit, diaPharma, Franklin, Ohio). Chromatographc conditions are the same as described above for the results from Tables 5 and 6. It can be

rFVIII [2] = molecular target: T1, rFVIII; test: confirmatory binding assay in filtration plate format using 14C-rFVIII; conditions: Table 4; for Total dpm / beads % total / beads dpm: 14C-rFVIII 30 nM; for 0.5M CaCl2 % total / 2% acetic acid % total / 2% acetic acid dpm / 0.5M CaCl2 dpm: 14C-rFVIII 30 nM in PPF, 5 mg beads; for 0.5M CaCl2 dpm: 5.0 × 10^15 dpm/mole, 5° C.; for beads % total / beads dpm: remaining on beads after washes
Experimental: Confirmatory binding assays were performed in a filtration plate format using individual peptide sequences synthesized directly onto the TOYOPEARL AF amino 650 M resin, at a final substitution density of 0.1 mmole/g resin. A slurry of each individual peptide sequence was prepared using deionized water. A 100 μL volume of beads (corresponding to 5 mg) was loaded into each well of the filtration plate (MULTISCREEN Assay System, Millipore, Bedford, Mass.), in triplicate for each peptide sequence. Beads were washed with 20% ethanol and incubated overnight with equilibration buffer (20 mM imidazole, 10 mM
CaCl2, 0.105 M NaCl, pH 6.9). A 100 μL aliquot of ^14 C-rFVIII diluted in neat PPF to a final concentration of 20-30 nM was loaded into each well and incubated for 1 hour at 5° C. Filtrate (unbound ^14 C-rFVIII) was collected into a microtiter plate and transferred to liquid scintillation vials for dpm counting. Beads were washed sequentially with: 100 μL of equilibration buffer for 15 minutes, 200 μL of 0.5 M CaCl2 (in equilibration buffer), 200 μL of 1.0 M CaCl2 (in equilibration buffer), and 200 uL of 2% by volume glacial acetic acid in water, for 1 hour each at 5° C. Scintillation counting on the unbound ^14 C-rFVIII (plus equilibration buffer wash), salt and acid washes, as well as on the beads was then performed and the overall mass balance calculated.
Beads presenting the appropriate peptide sequence on the surface were placed in the filtration plate wells and incubated sequentially with equilibration buffer, ^14 C-rFVIII in PPF, equilibration buffer, 0.5 M CaCl2 wash, 1.0 M CaCl2 wash and 2% acetic acid wash. After each incubation, filtrate was collected in microtiter plates, and dpm counted on each
In Table 3, the ^14 C-rFVIII was loaded at 20 nM (in PPF) and the radiolabeling yield was at 3.0×10^15 dpm/mole. In Table 4, the ^14 C-rFVIII was loaded at 30 nM (in PPF) and the radiolabeling yield was at 5.0×10^15 dpm/mole.

rFVIII [3] = molecular target: T1, rFVIII; test: column format binding assay, rFVIII mass per fraction by sandwich capture ELISA for the light chain; conditions: for 0.5M CaCl2 ng / 0.5M CaCl2 % total / 2% acetic acid % total / 2% acetic acid ng / Flow through % total / Total ng / Flow through ng: Table 6; for Flow through ng: 10,000 ng rFVIII in 1:10 PPF injected, 5° C.; for ELISA results % total: Table 9, 0.5M CaCl2 fraction
Experimental: as §1, §2, §3
Tables 5 and 6 present the results from the additional confirmatory binding assays using the column format. The chromatography method was run by injecting the samples at a flow rate of 865 μL/min (413 cm/hr). In order to provide a 10 minute residence time of sample in the column the flow was decreased to 17 μL/min (10 cm/hr) upon injection.
Following the incubation, the flow was set at 865 μL/min (413 cm/hr) for the step clutions of 0.5 M CaCl2, 1.0 M CaCl2, and 2% acetic acid. Results are expressed in terms of the total mass of rFVIII in each fraction, as determined by the sandwich capture ELISA assay for the rFVIII light chain. […] A control using a non-binding peptide sequence (IGF) is also shown for comparison--in this case, 95% of the rFVIII loaded to the column was collected in the flow through fraction. Additional controls with no

T1 sequence (P00451 20-2351): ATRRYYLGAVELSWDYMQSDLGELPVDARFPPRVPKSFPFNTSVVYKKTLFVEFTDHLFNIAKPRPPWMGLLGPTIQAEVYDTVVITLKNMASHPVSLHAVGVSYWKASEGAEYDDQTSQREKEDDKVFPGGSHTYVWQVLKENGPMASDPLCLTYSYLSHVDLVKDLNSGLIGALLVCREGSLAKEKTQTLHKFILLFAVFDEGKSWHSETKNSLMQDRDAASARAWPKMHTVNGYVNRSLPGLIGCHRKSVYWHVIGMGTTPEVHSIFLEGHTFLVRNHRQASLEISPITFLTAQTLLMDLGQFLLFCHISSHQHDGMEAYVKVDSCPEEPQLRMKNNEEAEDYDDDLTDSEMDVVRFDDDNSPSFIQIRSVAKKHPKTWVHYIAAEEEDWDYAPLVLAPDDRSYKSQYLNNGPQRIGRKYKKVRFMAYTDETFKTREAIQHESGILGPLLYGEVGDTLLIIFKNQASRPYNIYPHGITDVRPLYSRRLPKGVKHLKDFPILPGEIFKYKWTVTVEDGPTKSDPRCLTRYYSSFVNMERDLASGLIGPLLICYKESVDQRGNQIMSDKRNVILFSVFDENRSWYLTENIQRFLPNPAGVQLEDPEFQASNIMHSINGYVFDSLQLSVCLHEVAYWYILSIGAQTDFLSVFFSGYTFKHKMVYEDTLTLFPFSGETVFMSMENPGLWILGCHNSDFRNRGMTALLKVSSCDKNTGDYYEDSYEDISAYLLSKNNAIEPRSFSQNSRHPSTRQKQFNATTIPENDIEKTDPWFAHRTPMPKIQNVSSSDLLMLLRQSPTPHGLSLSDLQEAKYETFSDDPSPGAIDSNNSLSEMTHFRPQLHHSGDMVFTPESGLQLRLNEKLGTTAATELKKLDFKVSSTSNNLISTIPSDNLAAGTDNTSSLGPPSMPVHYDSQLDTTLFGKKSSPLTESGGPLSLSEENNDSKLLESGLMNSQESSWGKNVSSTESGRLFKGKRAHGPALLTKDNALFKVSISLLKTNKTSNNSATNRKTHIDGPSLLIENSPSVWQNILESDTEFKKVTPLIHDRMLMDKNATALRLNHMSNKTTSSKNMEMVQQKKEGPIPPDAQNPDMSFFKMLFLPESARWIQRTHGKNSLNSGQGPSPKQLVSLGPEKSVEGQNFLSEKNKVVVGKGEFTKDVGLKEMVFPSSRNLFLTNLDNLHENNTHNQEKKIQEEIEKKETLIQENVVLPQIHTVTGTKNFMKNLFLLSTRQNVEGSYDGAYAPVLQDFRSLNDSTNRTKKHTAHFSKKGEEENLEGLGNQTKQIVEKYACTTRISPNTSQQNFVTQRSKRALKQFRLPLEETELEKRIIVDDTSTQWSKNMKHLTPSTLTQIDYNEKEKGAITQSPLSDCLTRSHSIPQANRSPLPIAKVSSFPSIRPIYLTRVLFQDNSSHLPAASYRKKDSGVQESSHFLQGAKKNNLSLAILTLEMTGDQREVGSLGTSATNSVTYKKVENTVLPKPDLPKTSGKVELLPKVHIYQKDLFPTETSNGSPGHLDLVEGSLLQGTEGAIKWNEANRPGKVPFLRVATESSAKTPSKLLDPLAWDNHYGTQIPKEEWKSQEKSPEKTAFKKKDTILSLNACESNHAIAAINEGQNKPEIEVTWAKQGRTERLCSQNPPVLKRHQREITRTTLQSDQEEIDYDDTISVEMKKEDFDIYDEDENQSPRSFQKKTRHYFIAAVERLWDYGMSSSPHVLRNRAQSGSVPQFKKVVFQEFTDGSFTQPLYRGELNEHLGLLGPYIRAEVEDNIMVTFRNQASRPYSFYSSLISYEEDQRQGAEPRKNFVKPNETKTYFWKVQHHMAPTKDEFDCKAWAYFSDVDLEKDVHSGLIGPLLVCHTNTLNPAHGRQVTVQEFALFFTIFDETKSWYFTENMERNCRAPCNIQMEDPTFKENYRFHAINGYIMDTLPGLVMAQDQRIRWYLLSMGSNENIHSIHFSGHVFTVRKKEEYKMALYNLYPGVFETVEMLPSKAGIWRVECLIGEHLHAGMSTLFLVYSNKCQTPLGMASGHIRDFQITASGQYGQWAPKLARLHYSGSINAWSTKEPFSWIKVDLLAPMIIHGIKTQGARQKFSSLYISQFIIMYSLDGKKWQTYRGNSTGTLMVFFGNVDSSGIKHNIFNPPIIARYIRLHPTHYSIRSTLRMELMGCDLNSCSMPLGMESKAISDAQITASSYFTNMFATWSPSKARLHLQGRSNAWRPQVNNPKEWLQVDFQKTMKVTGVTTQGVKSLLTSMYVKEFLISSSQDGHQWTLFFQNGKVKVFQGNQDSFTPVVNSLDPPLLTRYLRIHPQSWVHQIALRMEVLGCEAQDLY
T1 sequence (P00451 1668-2351 limits assumed): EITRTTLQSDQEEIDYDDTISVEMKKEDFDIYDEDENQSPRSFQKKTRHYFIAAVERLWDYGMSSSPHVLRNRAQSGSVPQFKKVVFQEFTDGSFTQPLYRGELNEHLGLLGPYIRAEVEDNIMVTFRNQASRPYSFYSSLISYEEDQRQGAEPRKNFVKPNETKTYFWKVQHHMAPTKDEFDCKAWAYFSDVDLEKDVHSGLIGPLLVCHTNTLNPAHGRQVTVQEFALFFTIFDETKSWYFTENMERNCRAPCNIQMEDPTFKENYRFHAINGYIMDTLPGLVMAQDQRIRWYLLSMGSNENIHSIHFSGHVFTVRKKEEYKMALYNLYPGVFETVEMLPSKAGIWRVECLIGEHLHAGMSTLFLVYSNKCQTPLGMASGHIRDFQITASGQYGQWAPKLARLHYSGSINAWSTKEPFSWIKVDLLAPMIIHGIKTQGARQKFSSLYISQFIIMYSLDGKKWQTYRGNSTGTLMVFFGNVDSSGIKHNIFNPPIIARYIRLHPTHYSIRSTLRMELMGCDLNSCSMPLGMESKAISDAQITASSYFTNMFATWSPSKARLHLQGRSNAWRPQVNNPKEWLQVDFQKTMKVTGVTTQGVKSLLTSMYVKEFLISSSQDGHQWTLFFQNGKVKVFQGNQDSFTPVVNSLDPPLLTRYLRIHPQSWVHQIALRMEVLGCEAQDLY

| Substance | 0.5M CaCl2 IU (rFVIII [1]) [IU] | 2% acetic acid % total (rFVIII [1]) [%] | 2% acetic acid IU (rFVIII [1]) [IU] | Flow through % total (rFVIII [1]) [%] | Total IU (rFVIII [1]) [IU] | 0.5M CaCl2 % total (rFVIII [1]) [%] | Flow through IU (rFVIII [1]) [IU] | Total dpm (rFVIII [2]) [dpm] | 0.5M CaCl2 % total (rFVIII [2]) [%] | 2% acetic acid % total (rFVIII [2]) [%] | 2% acetic acid dpm (rFVIII [2]) [dpm] | 0.5M CaCl2 dpm (rFVIII [2]) [dpm] | beads % total (rFVIII [2]) [%] | beads dpm (rFVIII [2]) [dpm] | 0.5M CaCl2 ng (rFVIII [3]) [ng] | 0.5M CaCl2 % total (rFVIII [3]) [%] | 2% acetic acid % total (rFVIII [3]) [%] | 2% acetic acid ng (rFVIII [3]) [ng] | Flow through % total (rFVIII [3]) [%] | Total ng (rFVIII [3]) [ng] | also measured |
| --- | --- | --- | --- | --- | --- | --- | --- | --- | --- | --- | --- | --- | --- | --- | --- | --- | --- | --- | --- | --- | --- |
| 14 (EPRVIG) [compound 14] | 14.7 | 0 | 0.00 | 73 | 58.6 | 25 | 42.9 | 2184 | 91 | 6 | 130 | 1994 | 3 | 60 | 2850 | 32 | 1 | 75 | 66 | 8851 | Activity results % total (rFVIII [1]): 25%; Flow through ng (rFVIII [3]): 5828 ng; ELISA results % total (rFVIII [3]): 32% |
| 15 (VYGVGG) [compound 15] | 27.2 | 0 | 0.08 | 38 | 45.4 | 60 | 17.3 | 2330 | 93 | 5 | 115 | 2162 | 2 | 53 | 4611 | 55 | 1 | 121 | 42 | 8427 | Activity results % total (rFVIII [1]): 60%; Flow through ng (rFVIII [3]): 3572 ng; ELISA results % total (rFVIII [3]): 55% |
| 19 (FHFGLQ) [compound 19] | 9.9 | 7 | 1.4 | 2 | 19.5 | 51 | 0.5 | 2987 | 15 | 72 | 2148 | 457 | 13 | 382 | 1075 | 25 | 60 | 2569 | 0 | 4283 | Flow through ng (rFVIII [3]): 0 ng |
| 20 (WHHHRG) [compound 20] | 0.4 | 45 | 3.5 | 0 | 7.8 | 4 | 0.0 | 3884 | 12 | 54 | 2099 | 485 | 33 | 1300 | 36 | 1 | 95 | 4719 | 0 | 4966 | Flow through ng (rFVIII [3]): 0 ng |
